Source: publication PMC7448383

Legend:
Test in all cases: EMSA
G3BP1 S149A = G3BP1 S149A (human, UniProt Q13283 1-466, S149A)
G3BP1 WT = G3BP1 WT (human, UniProt Q13283 1-466)
G3BP1 dRBD = G3BP1 dRBD (human, UniProt Q13283 1-334, del335-466)
G3BP1 dIDR3 (dRGG) = G3BP1 dIDR3 (dRGG) (human, UniProt Q13283 1-410, del411-466)
G3BP1 dIDR3 (dRGG), sequence (Q13283 1-410, stated change not applied): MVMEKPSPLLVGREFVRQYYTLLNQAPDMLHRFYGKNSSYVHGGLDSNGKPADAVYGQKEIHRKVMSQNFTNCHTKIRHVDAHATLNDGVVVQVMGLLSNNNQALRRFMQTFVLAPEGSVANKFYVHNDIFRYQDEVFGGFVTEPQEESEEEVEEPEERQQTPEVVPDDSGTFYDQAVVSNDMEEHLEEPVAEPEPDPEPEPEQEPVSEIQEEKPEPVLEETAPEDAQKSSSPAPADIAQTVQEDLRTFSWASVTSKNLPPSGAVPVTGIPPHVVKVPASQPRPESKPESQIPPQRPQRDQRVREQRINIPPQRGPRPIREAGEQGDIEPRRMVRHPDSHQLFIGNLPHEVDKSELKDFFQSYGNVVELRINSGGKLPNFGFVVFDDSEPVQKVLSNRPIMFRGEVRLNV

G3BP1 WT, sequence (Q13283 whole entry): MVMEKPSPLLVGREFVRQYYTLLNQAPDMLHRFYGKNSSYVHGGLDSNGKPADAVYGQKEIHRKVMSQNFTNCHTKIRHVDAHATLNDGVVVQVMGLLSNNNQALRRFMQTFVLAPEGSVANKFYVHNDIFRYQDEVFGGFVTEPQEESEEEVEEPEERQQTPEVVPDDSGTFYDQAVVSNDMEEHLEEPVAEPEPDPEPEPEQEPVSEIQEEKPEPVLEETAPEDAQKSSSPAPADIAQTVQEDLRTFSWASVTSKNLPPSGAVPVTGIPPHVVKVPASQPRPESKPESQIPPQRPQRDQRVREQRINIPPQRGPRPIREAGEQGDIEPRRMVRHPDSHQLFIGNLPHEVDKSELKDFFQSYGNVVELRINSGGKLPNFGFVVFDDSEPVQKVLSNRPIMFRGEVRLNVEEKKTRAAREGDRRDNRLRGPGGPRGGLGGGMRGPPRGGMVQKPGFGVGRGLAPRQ
G3BP1 dRBD, sequence (Q13283 1-334, stated change not applied): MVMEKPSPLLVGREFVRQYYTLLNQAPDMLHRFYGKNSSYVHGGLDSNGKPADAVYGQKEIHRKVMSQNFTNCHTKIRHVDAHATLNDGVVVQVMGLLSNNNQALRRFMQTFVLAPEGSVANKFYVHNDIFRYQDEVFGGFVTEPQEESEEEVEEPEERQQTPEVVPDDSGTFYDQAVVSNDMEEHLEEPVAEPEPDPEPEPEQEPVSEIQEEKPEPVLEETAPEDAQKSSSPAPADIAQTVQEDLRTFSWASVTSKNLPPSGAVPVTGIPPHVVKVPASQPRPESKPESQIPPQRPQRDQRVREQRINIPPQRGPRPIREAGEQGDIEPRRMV
G3BP1 S149A, sequence (Q13283 whole entry S149A): as the sequence (Q13283 whole entry) above, with S149A counted along it

Binder	binding result (G3BP1 S149A)	binding result (G3BP1 WT)	binding result (G3BP1 dRBD)	binding result (G3BP1 dIDR3 (dRGG))
AGAUUCCACCACAAAGACCC (ssRNA) [20-base RNA]	binds	binds	–	–
100-base RNA (ssRNA) RNA: AGCCUGAAUCUCAGAUUCCACCACAAAGACCUCAGCGGGAUCAAAGAGUGCGAGAACAACGAAUAAAUAUUCCUCCCCAAAGGGGACCCAGACCAAUCCG	–	–	no binding	no binding
